We go through five molecules from patent US20230340555A1, “PRODUCTION OF GLYCOSYLATED CANNABINOIDS” (WILLOW BIOSCIENCES, INC., priority 2020, published 2023).

The conditions of data set [1]: cited from earlier work.
Data set [2] has as its system bacterial strain BL21 (DE3). Description: CBDA depletion in BL21 (DE3) strains expressing UGTs (UHPLC-MS). It counts as cell-based. To be noted: 0.1 mM CBDA, induced with 100 µM IPTG for 4h at 37° C. vs controls without induction. The text has this:
The following cDNAs encoding UGTs from Arabidopsis thaliana, Cannabis sativa and Helianthus annuus UGTs were cloned into pDONOR-zeo (as described in Example 1) and then recombined into the prokaryotic expression vector pDEST14: AtUGT73C6 (SEQ ID NO: 3), AtUGT88A1 (SEQ ID NO: 5), AtUGT71 D1 (SEQ ID NO: 7), AtUGT73B4 (SEQ ID NO: 9), AtUGT76C4 (SEQ ID NO: 11), AtUGT76E12 (SEQ ID NO: 13), and At5g49690 (SEQ ID NO: 17), CsUGT73C6 (SEQ ID NO: 15), HaUGT76G1L (SEQ ID NO: 1), and SrUGT76G1 (SEQ ID NO: 19). Host cells from the bacterial strain BL21 (DE3) were transformed individually pDEST14 vector.
A BL21 (DE3) single colony was inoculated in liquid media and incubated at 37° C. overnight. The bacterial cultures were diluted to a final 0.6 OD and CBDA was added to a final concentration of 0.1 mM. The cultures were split, and half was induced with 100 µM IPTG for 4h at 37° C. to express the UGTs and the other half was kept as controls without induction of UGT expression.
Subsequently, samples were treated with a 1:1 volume of acetonitrile for 15 minutes at 250 RPM. After 30 minutes centrifugation at 4,000 RPM, samples were diluted 1000-fold in the same solvent for further analysis.
CBDA depletion was assayed employing UHPLC-MS analysis. The instrument used was a Thermo Vanquish UHPLC connected to a Thermo TSQ Altis mass spectrometer. The UHPLC consists of a vacuum degasser, a ternary pump, a thermostated autosampler held at 5° C., and a thermostated column compartment. An Accucore C18 (150 × 2.2 mm, 2.6 µm, Thermo, USA) was used. The mobile phase is water with 0.1 % formic acid (A) and acetonitrile with 0.1 % formic acid (B) on a linear gradient (see Table 5). The flow rate was set at 0.800 mL/min. The column temperature was set at 30° C. The sample injection volume was 1 µL.
MS analyses were carried out in order to ensure the identity of the peaks and were performed on a Thermo TSQ Altis triple quadrupole mass spectrometer using electrospray ionization in negative mode. Compounds were analyzed using selected reaction monitoring using two ion pairs for quantitation and confirmation respectively.

Data set [3] has as its system CN3 yeast strain host cells. The data set can be described thus: Detection of glycosylated cannabinoids and cannabinoid precursors in yeast cells expressing UDP-glycosyl transferase (HPLC-MS). It counts as cell-based. To be noted: for production of glycosylated cannabinoids or cannabinoid precursor compounds: pellet or supernatant of recombinant yeast host cells transformed with the UGT; for CBD-(glc)2 / CBD-glc: 0.5 g/L CBD. The arrangement: key to CBDA-glc / OLA-glc / CBGA-glc / CBGA-(glc)2 / CBD-glc / CBD-(glc)2 / OLA-(glc)2 / CBGA-glucuronic acid: (+) represents the lowest detected quantities; (++), (+++), and (++++) signify relative increasing intermediate detected levels; (++), (+++), and (++++) signify relative increasing intermediate detected levels; (++), (+++), and (++++) signify relative increasing intermediate detected levels; (+++++) represents the highest detected quantities; No detectable levels of a glycosylated cannabinoid compound or glycosylated cannabinoid precursor compound are indicated by “n.d.”. An outline of the steps: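 CN3 yeast host cells carrying a heterologous UDP-glycosyl transferase gene were grown overnight in YPD, then diluted into YPG to OD600 = 0.2 and shaken at 600 RPM and 28° C. Cell pellets and supernatants were extracted for 1 hour in 80 % Acetonitrile/20 % Methanol, centrifuged at 12,000 RPM, filtered (0.22 µm), and checked for glycosylated cannabinoids and precursors by HPLC and negative-mode ESI QToF HPLC-MS.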

The mark [4] stands for this setting: 20 h growth, detected in PELLET, 0.05 mM hexanoic acid.
[5] abbreviates: 20 h growth, detected in PELLET.
Setting [6] is: 20 h growth, detected in SUPERNATANT, 0.2 mM hexanoic acid.
[7] abbreviates: 20 h growth, detected in SUPERNATANT

For `CCCCCc1cc(O)c2c(c1)OC(C)(C)C1CCC(C)=CC21` (centres unmarked) [Δ^9-THC, Δ^9-tetrahydrocannabinol], the solubility in water entry in data set [1] is “less than 0.01 mg/ml”.

B1: At5g49690: UDP-glycosyl transferase from Arabidopsis thaliana, amino acid sequence SEQ ID NO: 18 (protein, listed as Arabidopsis thaliana)
chain: MVDKREEVMHVAMFPWLAMGHLLPFLRLSKLLAQKGHKISFISTPRNIERLPKLQSNLASSITFVSFPLPPISGLPPSSESSMDVPYNKQQSLKAAFDLLQPPLKEFLRRSSPDWIIYDYASHWLPSIAAELGISKAFFSLFNAATLCFMGPSSSLIEEIRSTPEDFTVVPPWVPFKSNIVFRYHEVTRYVEKTEEDVTGVSDSVRFGYSIDESDAVFVRSCPEFEPEWFGLLKDLYRKPVFPIGFLPPVIEDDDAVDTTWVRIKKWLDKQRLNSVVYVSLGTEASLRHEEVTELALGLEKSETPFFWVLRNEPKIPDGFKTRVKGRGMVHVGWVPQVKILSHESVGGFLTHCGWNSVVEGLGFGKVPIFFPVLNEQGLNTRLLHGKGLGVEVSRDERDGSFDSDSVADSIRLVMIDDAGEEIRAKAKVMKDLFGNMDENIRYVDELVRFMRSKGSSSSS
For the molecule B1, the “decrease in CBDA content” value in data set [2] was determined as 9%. Moreover, the CBDA-glc entry in data set [3] (setting [4]) was “+”. The “production of glycosylated cannabinoids or cannabinoid precursor compounds” value (“production” for short) in data set [3] is on record as “detected”.

B2: AtUGT73C6: UDP-glycosyl transferase from Arabidopsis thaliana, amino acid sequence SEQ ID NO: 4 (protein, listed as Arabidopsis thaliana)
chain: MAFEKNNEPFPLHFVLFPFMAQGHMIPMVDIARLLAQRGVLITIVTTPHNAARFKNVLNRAIESGLPINLVQVKFPYQEAGLQEGQENMDLLTTMEQITSFFKAVNLLKEPVQNLIEEMSPRPSCLISDMCLSYTSEIAKKFKIPKILFHGMGCFCLLCVNVLRKNREILDNLKSDKEYFIVPYFPDRVEFTRPQVPVETYVPAGWKEILEDMVEADKTSYGVIVNSFQELEPAYAKDFKEARSGKAWTIGPVSLCNKVGVDKAERGNKSDIDQDECLEWLDSKEPGSVLYVCLGSICNLPLSQLLELGLGLEESQRPFIWVIRGWEKYKELVEWFSESGFEDRIQDRGLLIKGWSPQMLILSHPSVGGFLTHCGWNSTLEGITAGLPMLTWPLFADQFCNEKLVVQILKVGVSAEVKEVMKWGEEEKIGVLVDKEGVKKAVEELMGESDDAKERRRRAKELGESAHKAVEEGGSSHSNITFLLQDIMQLAQSNN
Consider B2, for which the “decrease in CBDA content” value in data set [2] is 12%. Besides, in data set [3] (setting [4]), the CBDA-glc entry was “+++”, the “CBGA-(glc)2” value was “++”, the CBGA-glc result was “++++” and the CBGA-glucuronic acid result is on record as “++”. In data set [3] (setting [4]), the “OLA-(glc)2” value is reported as “++” and the OLA-glc entry was “+++”. In data set [3] (setting [5]), the “CBD-(glc)2” value is on record as “++” and the CBD-glc result is “+++”. In addition, in data set [3] (setting [6]), the “CBGA-(glc)2” value is on record as “+”, the CBGA-glc result is reported as “+” and the OLA-glc entry is listed as “+++”. In data set [3] (setting [7]), the “CBD-(glc)2” value is given as “++” and the CBD-glc result is “+++”. Besides, the “production” value in data set [3] is given as “detected”.

B3: AtUGT71 D1: UDP-glycosyl transferase from Arabidopsis thaliana, amino acid sequence SEQ ID NO: 8 (protein, listed as Arabidopsis thaliana)
chain: MRNVELIFIPTPTVGHLVPFLEFARRLIEQDDRIRITILLMKLQGQSHLDTYVKSIASSQPFVRFIDVPELEEKPTLGSTQSVEAYVYDVIERNIPLVRNIVMDILTSLALDGVKVKGLVVDFFCLPMIDVAKDISLPFYVFLTTNSGFLAMMQYLADRHSRDTSVFVRNSEEMLSIPGFVNPVPANVLPSALFVEDGYDAYVKLAILFTKANGILVNSSFDIEPYSVNHFLQEQNYPSVYAVGPIFDLKAQPHPEQDLTRRDELMKWLDDQPEASVVFLCFGSMARLRGSLVKEIAHGLELCQYRFLWSLRKEEVTKDDLPEGFLDRVDGRGMICGWSPQVEILAHKAVGGFVSHCGWNSIVESLWFGVPIVTWPMYAEQQLNAFLMVKELKLAVELKLDYRVHSDEIVNANEIETAIRYVMDTDNNVVRKRVMDISQMIQRATKNGGSSFAAIEKFIYDVIGIKP
As to B3, the “decrease in CBDA content” value in data set [2] is 9%. Besides, in data set [3] (setting [4]), the CBDA-glc result is recorded as “++”, the CBGA-glc result is listed as “+” and the OLA-glc result is reported as “++”. In data set [3] (setting [5]), the CBD-glc result is reported as “+++”. The OLA-glc entry in data set [3] (setting [6]) was “++”. Also, the CBD-glc result in data set [3] (setting [7]) is listed as “+++”. In addition, in data set [3], the “production” value was “detected”.

B4: SrUGT76G1: UDP-glycosyl transferase from Stevia rebaudiana, amino acid sequence SEQ ID NO: 20 (protein, listed as Stevia rebaudiana)
chain: MENKTETTVRRRRRIILFPVPFQGHINPILQLANVLYSKGFSITIFHTNFNKPKTSNYPHFTFRFILDNDPQDERISNLPTHGPLAGMRIPIINEHGADELRRELELLMLASEEDEEVSCLITDALWYFAQSVADSLNLRRLVLMTSSLFNFHAHVSLPQFDELGYLDPDDKTRLEEQASGFPMLKVKDIKSAYSNWQILKEILGKMIKQTRASSGVIWNSFKELEESELETVIREIPAPSFLIPLPKHLTASSSSLLDHDRTVFQWLDQQPPSSVLYVSFGSTSEVDEKDFLEIARGLVDSKQSFLWVVRPGFVKGSTWVEPLPDGFLGERGRIVKWVPQQEVLAHGAIGAFWTHSGWNSTLESVCEGVPMIFSDFGLDQPLNARYMSDVLKVGVYLENGWERGEIANAIRRVMVDEEGEYIRQNARVLKQKADVSLMKGGSSYESLESLVSYISSL
For B4, in data set [2], the “decrease in CBDA content” value was found to be 21%. In data set [3], the “production” value is “No production”.
